No end group written: not given here. *: point of attachment. FITC = O=C1OC2(c3ccc(O)cc3Oc3cc(O)ccc32)c2ccc(NC(=S)*)cc21
T1: merlin FERM domain (human, UniProt P35240 22-312)
T1 construct: human merlin (NF2) FERM domain, amino acids 22-312, synthetic gene in pETM33; source: E. coli BL21(DE3), purified (GSH sepharose, HRV3C cleavage, reverse Ni-IMAC); not shown: His, N-terminal, cleaved; GST, N-terminal, cleaved
T1 sequence (looked up): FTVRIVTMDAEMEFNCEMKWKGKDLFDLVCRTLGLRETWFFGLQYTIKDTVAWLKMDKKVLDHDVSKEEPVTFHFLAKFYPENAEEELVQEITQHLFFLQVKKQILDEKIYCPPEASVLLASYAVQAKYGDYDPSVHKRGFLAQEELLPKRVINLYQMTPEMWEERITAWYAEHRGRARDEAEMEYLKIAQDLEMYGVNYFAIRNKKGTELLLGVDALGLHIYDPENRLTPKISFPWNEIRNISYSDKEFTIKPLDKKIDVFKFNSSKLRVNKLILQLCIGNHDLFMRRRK

B1: BOC(1000–1015) peptide (peptide)
peptide: LYTLPDDSTHQLLQPH
notes: BOC, human, residues 1000-1015; source: synthetic peptide (GeneCust)
B2: CAMK2B(13–28) peptide (peptide)
peptide: EYQLYEDIGKGAFSVV
notes: CAMK2B, human, residues 13-28; source: synthetic peptide (GeneCust)
B3: GCM2(274–289) peptide (peptide)
peptide: SYELANPGYTNSSPYP
notes: GCM2, human, residues 274-289; source: synthetic peptide (GeneCust)
B4: ICAM3(516–531) peptide (peptide)
peptide: SGSYHVREESTYLPLT
notes: ICAM3, human, residues 516-531; source: synthetic peptide (GeneCust)
B5: LATS1(421–436) peptide (peptide)
peptide: LYNISVPGLQTNWPQS
notes: LATS1, human, residues 421-436; source: synthetic peptide (GeneCust)
B6: MISP(595–610) peptide (peptide)
peptide: ITGSYSVSESPFFSPI
notes: also called MISP3 peptide; source: synthetic peptide (GeneCust)
B7: PDCD6IP(853–868) peptide (peptide)
peptide: SYPFPQPPQQSYYPQQ
notes: PDCD6IP, human, residues 853-868; source: synthetic peptide (GeneCust)
B8: RIMS1(1405–1420) peptide (peptide)
peptide: MYTLEHNDGSQSDTAV
notes: RIMS1, human, residues 1405-1420; source: synthetic peptide (GeneCust)
B9: RORA(185–200) peptide (peptide)
peptide: TYNISANGLTELHDDL
notes: RORA, human, residues 185-200; source: synthetic peptide (GeneCust)
B10: FITC-EBP50 343-358 peptide (peptide)
peptide: {FITC}-APQMDWSKKNELFSNL-OH
modifications: not fully specified
notes: also called NHERF1; source: synthetic peptide (GeneCust)
B11: FITC-LATS1 73-88 peptide (peptide)
peptide: THHKALQEIRNSLLPF
modifications: also: FITC label, position not given here
notes: LATS1, residues 73-88; source: synthetic peptide (GeneCust)
B12: FITC-NOP53 192-207 peptide (peptide)
peptide: FYDLWASDNPLDRPLV
modifications: also: FITC label, position not given here
notes: NOP53, residues 192-207; source: synthetic peptide (GeneCust)
B13: FITC-TBX4 428-443 peptide (peptide)
peptide: SYSVQTMETVPYQPFP
modifications: also: FITC label, position not given here
notes: TBX4 (T-box transcription factor TBX4), residues 428-443; source: synthetic peptide (GeneCust)
B14: HIF1A(37–52) peptide (peptide)
peptide: FYELAHQLPLPHNVSS
notes: HIF1A, human, residues 37-52; source: synthetic peptide (GeneCust)
B15: FITC-ZNF622(341–356) peptide (peptide, UniProt Q969S3 341-356, looked up)
peptide: LEFADFYDFRSSYPDH
modifications: not fully specified (N-terminus); also: FITC label (position not given here)
notes: also called FITC-ZNZ622; source: synthetic peptide (GeneCust)
B16: FITC-NOP53(192–207) peptide (peptide)
peptide: FYDLWASDNPLDRPLV
modifications: also: FITC label, position not given here
notes: NOP53, human, residues 192-207; source: synthetic peptide (GeneCust)
B17: FITC-LATS1(73–88) peptide (peptide)
peptide: THHKALQEIRNSLLPF
modifications: also: FITC label, position not given here
notes: LATS1, human, residues 73-88; also called LATS(73–88); source: synthetic peptide (GeneCust)
B18: RRBP1(1365–1380) peptide (peptide)
peptide: RAATRLQELLKTTQEQ
notes: RRBP1, human, residues 1365-1380; also called RRBP1 peptide; source: synthetic peptide (GeneCust)
B19: FITC-TBX4(428–443) peptide (peptide, UniProt P57082 428-443, looked up)
peptide: SYSVQTMETVPYQPFP
modifications: also: FITC label, position not given here
notes: T-box transcription factor TBX4, human, residues 428-443; source: synthetic peptide (GeneCust)
B20: FITC-FAM83G(111–126) peptide (peptide, UniProt A6ND36 111-126, looked up)
peptide: AEPLPSLEYWPQKSDR
modifications: also: FITC label (position not given here)
notes: FAM83G, human, residues 111-126; source: synthetic peptide (GeneCust)

These binders were tested against T2, moesin FERM domain (UniProt P26038 2-295) (assay: fluorescence polarisation; competition: precomplex of FERM domain (2 x KD) and FITC-KIRREL3(637–652) probe, titrated with unlabeled peptide; constants printed as KD′; FP buffer). Settings: both partners purified.
T2 construct: moesin FERM domain from pGEX4T Moesin FERM; also called WT moesin; source: E. coli BL21(DE3), purified (GSH sepharose, thrombin cleavage on beads, benzamidine column, gel filtration); not shown: GST, N-terminal, cleaved
T2 sequence (P26038 2-295): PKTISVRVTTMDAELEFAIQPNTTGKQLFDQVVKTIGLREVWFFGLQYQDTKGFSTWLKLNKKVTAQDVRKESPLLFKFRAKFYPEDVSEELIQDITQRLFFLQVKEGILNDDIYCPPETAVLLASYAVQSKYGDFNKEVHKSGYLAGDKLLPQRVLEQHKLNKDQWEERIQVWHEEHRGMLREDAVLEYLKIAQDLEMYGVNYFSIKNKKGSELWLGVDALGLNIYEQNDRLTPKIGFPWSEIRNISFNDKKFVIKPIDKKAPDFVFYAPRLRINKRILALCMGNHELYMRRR

| Binder | Kd [µM] |
| --- | --- |
| B1 | 18 ± 1 |
| B2 | 96 ± 4 |
| B3 | 38 ± 3 |
| B4 | 113 ± 3 |
| B5 | 149 ± 5 |
| B6 | 2.3 ± 0.1 |
| B7 | 35.2 ± 0.2 |
| B8 | 564 ± 5 |
| B9 | 134 ± 3 |

Each binder was assayed against T3, radixin FERM domain (as used in FP) (human, UniProt P35241 5-295) in the same assay as above. Settings: both partners purified.
T3 construct: human radixin FERM domain, amino acids 5-295, synthetic gene in pETM33; source: E. coli BL21(DE3), purified (GSH sepharose)
T3 sequence (P35241 5-295): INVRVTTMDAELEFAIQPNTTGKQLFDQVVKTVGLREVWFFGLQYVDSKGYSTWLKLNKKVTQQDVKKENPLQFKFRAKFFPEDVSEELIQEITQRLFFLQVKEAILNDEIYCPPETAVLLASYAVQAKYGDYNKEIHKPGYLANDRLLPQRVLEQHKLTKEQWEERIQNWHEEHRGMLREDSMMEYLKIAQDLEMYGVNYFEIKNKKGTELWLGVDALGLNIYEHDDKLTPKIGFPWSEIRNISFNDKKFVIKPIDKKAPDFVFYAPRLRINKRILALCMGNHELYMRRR

| Binder | Kd [µM] |
| --- | --- |
| B1 | 17 ± 2 |
| B2 | 6.8 ± 0.4 |
| B3 | 85 ± 3 |

What follows are binders tested against T4, ezrin FERM domain (as used in FP) (UniProt P15311 2-296) in the same assay as above. Settings: both partners purified.
T4 construct: ezrin FERM domain from pGEX4T1 Ezrin FERM; source: E. coli BL21(DE3), purified (GSH sepharose)
T4 sequence (P15311 2-296): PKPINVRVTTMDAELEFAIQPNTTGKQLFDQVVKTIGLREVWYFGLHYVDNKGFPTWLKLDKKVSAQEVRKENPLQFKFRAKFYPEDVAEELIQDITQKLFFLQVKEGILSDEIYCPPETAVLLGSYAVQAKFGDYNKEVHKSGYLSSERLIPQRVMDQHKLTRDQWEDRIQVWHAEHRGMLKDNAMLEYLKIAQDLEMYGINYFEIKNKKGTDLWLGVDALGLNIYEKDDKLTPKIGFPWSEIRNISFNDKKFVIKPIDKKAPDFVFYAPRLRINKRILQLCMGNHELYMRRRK

| Binder | Kd [µM] |
| --- | --- |
| B1 | 8 ± 0.1 |
| B2 | 26 ± 0.6 |
| B3 | 205 ± 11 |

Each binder was assayed against T5, Moesin FERM M285A/H288A (human, UniProt P26038 2-295, M285A | H288A) (assay: fluorescence polarisation; direct binding: FITC-labeled probe peptide (5 nM) titrated with a dilution series of moesin FERM domain; 20 mM HEPES, pH 7.4, 150 mM NaCl, 0.05% Tween-20, 3 mM DTT; quadratic equation for 1:1 binding). Settings: both partners purified.
T5 construct: moesin (P26038) FERM domain from pGEX4T Moesin FERM (Addgene plasmid # 1163); also called moesin FERM domain (M285A and H288A); moesin FERM M285/H288A; source: E. coli BL21(DE3), purified (GSH sepharose, thrombin cleavage, HiTrap benzamidine)
T5 sequence (P26038 2-295 M285A/H288A): as the sequence (P26038 2-295) above, with M284A, H287A counted along it

| Binder | Kd [µM] |
| --- | --- |
| B10 | 3.1 ± 0.2 |
| YYSVNTFKEHHSTPTI (also: FITC label, position not given here, source: synthetic peptide (GeneCust)) [FITC-KIRREL3 637-652 peptide] | 0.84 ± 0.05 |
| B11 | 1.3 ± 0.1 |
| B12 | 2.2 ± 0.1 |
| B13 | 6.9 ± 0.4 |
| LEFADFYDFRSSYPDH (also: FITC label, position not given here, source: synthetic peptide (GeneCust)) [FITC-ZNF622 341-356 peptide] | 1.3 ± 0.1 |

These binders were tested against T6, Moesin FERM K211A/I238A (human, UniProt P26038 2-295, K211A | I238A) in the same assay as above. Settings: both partners purified.
T6 construct: moesin (P26038) FERM domain from pGEX4T Moesin FERM (Addgene plasmid # 1163); also called moesin K211A/I238A; double mutant moesin FERM K211A/I238A; source: E. coli BL21(DE3), purified (GSH sepharose, thrombin cleavage, HiTrap benzamidine)
T6 sequence (P26038 2-295 K211A/I238A): as the sequence (P26038 2-295) above, with K210A, I237A counted along it

| Binder | Kd [µM] |
| --- | --- |
| B10 | 114 ± 7 |
| YYSVNTFKEHHSTPTI (also: FITC label, position not given here, source: synthetic peptide (GeneCust)) [FITC-KIRREL3 637-652 peptide] | 0.17 ± 0.02 |
| B11 | 7.4 ± 0.5 |
| B12 | 42 ± 1 |
| B13 | 2.17 ± 0.31 |
| LEFADFYDFRSSYPDH (also: FITC label, position not given here, source: synthetic peptide (GeneCust)) [FITC-ZNF622 341-356 peptide] | 46 ± 2 |

Each binder was assayed against T2, moesin FERM domain (assay: fluorescence polarisation; competition: precomplex of moesin FERM and FITC-ZNF622 probe, titrated with unlabeled peptide; constants printed as KD′; FP buffer (for HIF1A the text names FITC-NOP53 as probe, the table's footnote FITC-ZNF622)). Settings: both partners purified.

| Binder | Kd [µM] |
| --- | --- |
| B14 | 3 ± 0.4 |

Each binder was assayed against T7, moesin FERM M285A/H288A (UniProt P26038 2-295, M285A | H288A) (assay: fluorescence polarisation; direct binding: 5 nM FITC-labeled probe peptide titrated with FERM domain; 20 mM HEPES pH 7.4, 150 mM NaCl, 0.05% Tween-20, 3 mM DTT; quadratic equation for 1:1 binding). Settings: both partners purified.
T7 construct: moesin FERM domain from pGEX4T Moesin FERM, double mutant; tag removal is told for moesin FERM in FP in general; also called moesin FERM M285/H288A; source: E. coli BL21(DE3), purified; not shown: GST, N-terminal, cleaved
T7 sequence (P26038 2-295 M285A/H288A): as the sequence (P26038 2-295) above, with M284A, H287A counted along it

| Binder | binding result |
| --- | --- |
| WSKKNELFSNL (peptide, UniProt O14745 348-358, looked up, also: FITC label, position not given here, source: synthetic peptide (GeneCust)) [FITC-EBP50(348–358) peptide] | binds |

The binders below were run against T8, moesin FERM K211A/I238A (UniProt P26038 2-295, K211A | I238A) in the same assay as above. Settings: both partners purified.
T8 construct: moesin FERM domain from pGEX4T Moesin FERM, double mutant; tag removal is told for moesin FERM in FP in general; also called moesin K211A/I238A; source: E. coli BL21(DE3), purified; not shown: GST, N-terminal, cleaved
T8 sequence (P26038 2-295 K211A/I238A): as the sequence (P26038 2-295) above, with K210A, I237A counted along it

| Binder | binding result |
| --- | --- |
| WSKKNELFSNL (peptide, UniProt O14745 348-358, looked up, also: FITC label, position not given here, source: synthetic peptide (GeneCust)) [FITC-EBP50(348–358) peptide] | binds |

The binders below were run against T1, merlin FERM domain in the same assay as above. Settings: both partners purified.

| Binder | binding result | Kd [µM] |
| --- | --- | --- |
| B15 | binds | – |
| B16 | binds | – |
| B17 | binds | – |
| WSKKNELFSNL (peptide, UniProt O14745 348-358, looked up, also: FITC label, position not given here, source: synthetic peptide (GeneCust)) [FITC-EBP50(348–358) peptide] | binds | – |
| B18 | – | 9.7 ± 0.8 |

Each binder was assayed against T3, radixin FERM domain (as used in FP) in the same assay as above. Settings: both partners purified.

| Binder | binding result |
| --- | --- |
| YYSVNTFKEHHSTPTI (peptide, UniProt Q8IZU9 637-652, looked up, also: FITC label, position not given here, source: synthetic peptide (GeneCust)) [FITC-KIRREL3(637–652) peptide] | binds |
| B19 | binds |
| B15 | binds |
| B16 | binds |
| B20 | binds |
| B17 | binds |
| WSKKNELFSNL (peptide, UniProt O14745 348-358, looked up, also: FITC label, position not given here, source: synthetic peptide (GeneCust)) [FITC-EBP50(348–358) peptide] | binds |

From PMC10249358, “Elucidation of Short Linear Motif-Based Interactions of the FERM Domains of Ezrin, Radixin, Moesin, and Merlin” (Biochemistry, 2023)
